Test results from patent publication US20040161739A1.

Columns and labels:
[1] = molecular target: IL-8A interleukin receptor (UniProt P25024); test: cell-based or functional assay
[2] = molecular target: active human CCR5 chemokine receptor (human) (UniProt P51681); test: cell-based or functional assay
Sequence of UniProt P51681 (P51681 whole entry): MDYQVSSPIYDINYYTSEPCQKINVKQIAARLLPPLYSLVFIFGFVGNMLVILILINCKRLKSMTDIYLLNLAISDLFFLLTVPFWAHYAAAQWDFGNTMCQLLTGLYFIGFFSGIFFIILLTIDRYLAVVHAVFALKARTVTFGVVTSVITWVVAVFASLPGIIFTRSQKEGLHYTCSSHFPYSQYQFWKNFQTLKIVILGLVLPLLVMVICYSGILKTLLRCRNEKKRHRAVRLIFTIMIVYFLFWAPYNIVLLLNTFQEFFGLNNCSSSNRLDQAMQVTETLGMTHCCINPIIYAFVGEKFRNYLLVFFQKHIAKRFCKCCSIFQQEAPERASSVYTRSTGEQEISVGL

Row | Substance | increase in metabolic activity (microphysiometer) [1] [%] | EC50 of the acidification response (microphysiometer) [2] [nM] | acidification rate at 30 nM, percent of baseline level (% of baseline level) [2]
1 | recombinant human IL-8 (Interleukin 8) (from UniProt P10145 28-99) (ligand) | 160 |  | 
2 | recombinant human MIP-1α (Macrophage Inflammatory Protein 1 α) (from UniProt P10147 27-92) (ligand) |  | 3 | 156
